According to paper PMC9482650, “Quantitative fragmentomics allow affinity mapping of interactomes” (Nature Communications, 2022):

T1: APBA3_2, O96018
T1 sequence (O96018 480-570, limits assumed, looked up): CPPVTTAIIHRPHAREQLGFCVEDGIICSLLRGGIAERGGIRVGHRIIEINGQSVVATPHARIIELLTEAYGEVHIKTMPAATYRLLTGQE

T2: CNKSR1, Q969H4
T2 sequence (Q969H4 191-295, limits assumed, looked up): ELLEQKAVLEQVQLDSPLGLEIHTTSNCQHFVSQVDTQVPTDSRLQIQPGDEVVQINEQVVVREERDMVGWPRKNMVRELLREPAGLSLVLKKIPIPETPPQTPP

T3: MPDZ_2, O75970
T3 sequence (O75970 252-347, limits assumed, looked up): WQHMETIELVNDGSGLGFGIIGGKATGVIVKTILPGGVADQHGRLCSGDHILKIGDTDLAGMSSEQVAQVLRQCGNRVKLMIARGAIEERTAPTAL

T4: NHERF1_2, O14745
T4 sequence (O14745 149-244, limits assumed, looked up): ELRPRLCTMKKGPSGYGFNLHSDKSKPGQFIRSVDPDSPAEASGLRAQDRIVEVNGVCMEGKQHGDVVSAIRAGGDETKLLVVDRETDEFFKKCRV

T5: PDZD2_3, O15018
T5 sequence (O15018 581-682, limits assumed, looked up): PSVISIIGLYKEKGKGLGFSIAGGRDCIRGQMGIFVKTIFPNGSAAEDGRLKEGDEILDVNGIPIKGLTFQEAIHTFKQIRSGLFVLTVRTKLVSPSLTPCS

T6: PDZD7_2, Q9H5P4
T6 sequence (Q9H5P4 205-303, limits assumed, looked up): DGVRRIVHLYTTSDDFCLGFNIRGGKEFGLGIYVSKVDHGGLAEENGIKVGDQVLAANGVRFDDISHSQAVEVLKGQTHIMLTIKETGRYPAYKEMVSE

T7: PTPN13_4, Q12923
T7 sequence (Q12923 1783-1878, limits assumed, looked up): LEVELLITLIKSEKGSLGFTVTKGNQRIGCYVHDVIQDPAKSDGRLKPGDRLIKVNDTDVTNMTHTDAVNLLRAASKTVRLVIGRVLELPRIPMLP

T8: PTPN13_5, Q12923
T8 sequence (Q12923 1877-1975, limits assumed, looked up): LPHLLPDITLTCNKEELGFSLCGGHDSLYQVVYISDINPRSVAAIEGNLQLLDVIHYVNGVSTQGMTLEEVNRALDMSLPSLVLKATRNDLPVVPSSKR

T9: SHROOM4, Q9ULL8
T9 sequence (Q9ULL8 5-102, limits assumed, looked up): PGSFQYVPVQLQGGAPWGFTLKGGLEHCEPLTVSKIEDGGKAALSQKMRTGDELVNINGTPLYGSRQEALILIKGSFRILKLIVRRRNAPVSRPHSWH

T10: SNTB2, Q13425
T10 sequence (Q13425 110-208, limits assumed, looked up): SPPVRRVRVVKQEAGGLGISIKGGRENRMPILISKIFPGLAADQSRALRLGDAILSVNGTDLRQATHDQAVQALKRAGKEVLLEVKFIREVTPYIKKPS

T11: TJP3_1, O95049
T11 sequence (O95049 6-103, limits assumed, looked up): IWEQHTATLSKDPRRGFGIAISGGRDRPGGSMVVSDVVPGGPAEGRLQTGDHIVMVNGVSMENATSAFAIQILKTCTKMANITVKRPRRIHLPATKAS

T12: USH1C_2, Q9Y6N9
T12 sequence (Q9Y6N9 206-303, limits assumed, looked up): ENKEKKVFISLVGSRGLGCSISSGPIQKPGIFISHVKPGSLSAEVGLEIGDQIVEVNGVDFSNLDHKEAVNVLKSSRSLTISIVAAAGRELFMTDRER


Target: T1, APBA3_2, O96018
Assay: holdup assay
Design: key: below the threshold = too weak to quantify, mostly under pKd 3.1 to 4
Settings: plain residues with an end cap or a label only (N-terminal biotin on a linker: ttds)

Binder	pKd
NYWPGKETQL [SLCO1C1, Q9NYB5]	below the threshold
CLDTSRETDL [KCNA5, P22460]	below the threshold

Target: T2, CNKSR1, Q969H4
Assay: holdup assay
Design: key: below the threshold = too weak to quantify, mostly under pKd 3.1 to 4
Settings: plain residues with an end cap or a label only (N-terminal biotin on a linker: ttds)

Binder	pKd
NYWPGKETQL [SLCO1C1, Q9NYB5]	below the threshold
CLDTSRETDL [KCNA5, P22460]	below the threshold

Target: MAGI1_3, Q96QZ7
Assay: holdup assay
Design: key: below the threshold = too weak to quantify, mostly under pKd 3.1 to 4
Settings: plain residues with an end cap or a label only (N-terminal biotin on a linker: ttds)

MAGI1_3, Q96QZ7, sequence (Q96QZ7 638-725): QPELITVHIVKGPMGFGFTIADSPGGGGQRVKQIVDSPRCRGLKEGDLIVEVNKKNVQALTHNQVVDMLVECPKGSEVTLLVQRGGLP

Binder	pKd
NYWPGKETQL [SLCO1C1, Q9NYB5]	below the threshold
CLDTSRETDL [KCNA5, P22460]	below the threshold

Target: T3, MPDZ_2, O75970
Assay: holdup assay
Design: key: below the threshold = too weak to quantify, mostly under pKd 3.1 to 4
Settings: plain residues with an end cap or a label only (N-terminal biotin on a linker: ttds)

Binder	pKd
NYWPGKETQL [SLCO1C1, Q9NYB5]	below the threshold
CLDTSRETDL [KCNA5, P22460]	below the threshold

Target: T4, NHERF1_2, O14745
Assay: holdup assay
Design: key: below the threshold = too weak to quantify, mostly under pKd 3.1 to 4
Settings: plain residues with an end cap or a label only (N-terminal biotin on a linker: ttds)

Binder	pKd
NYWPGKETQL [SLCO1C1, Q9NYB5]	below the threshold
CLDTSRETDL [KCNA5, P22460]	below the threshold

Target: NHERF4_3, Q86UT5
Assay: holdup assay
Design: key: below the threshold = too weak to quantify, mostly under pKd 3.1 to 4
Settings: plain residues with an end cap or a label only (N-terminal biotin on a linker: ttds)

NHERF4_3, Q86UT5, sequence (Q86UT5 325-412): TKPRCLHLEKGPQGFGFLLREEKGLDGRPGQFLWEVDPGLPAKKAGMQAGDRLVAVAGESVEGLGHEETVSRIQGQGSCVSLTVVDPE

Binder	pKd
NYWPGKETQL [SLCO1C1, Q9NYB5]	4.56
CLDTSRETDL [KCNA5, P22460]	below the threshold

Target: O00560
Assay: holdup assay
Design: key: below the threshold = too weak to quantify, mostly under pKd 3.1 to 4
Settings: plain residues with an end cap or a label only (N-terminal biotin on a linker: ttds)

Binder	pKd
NYWPGKETQL [SLCO1C1, Q9NYB5]	below the threshold
CLDTSRETDL [KCNA5, P22460]	below the threshold

Target: O15021
Assay: holdup assay
Design: key: below the threshold = too weak to quantify, mostly under pKd 3.1 to 4
Settings: plain residues with an end cap or a label only (N-terminal biotin on a linker: ttds)

Binder	pKd
NYWPGKETQL [SLCO1C1, Q9NYB5]	below the threshold
CLDTSRETDL [KCNA5, P22460]	below the threshold

Target: PARD3B_3, Q8TEW8
Assay: holdup assay
Design: key: below the threshold = too weak to quantify, mostly under pKd 3.1 to 4
Settings: plain residues with an end cap or a label only (N-terminal biotin on a linker: ttds)

PARD3B_3, Q8TEW8, sequence (Q8TEW8 490-594): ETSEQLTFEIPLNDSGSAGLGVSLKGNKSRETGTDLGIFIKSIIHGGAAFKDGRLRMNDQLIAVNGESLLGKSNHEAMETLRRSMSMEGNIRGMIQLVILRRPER

Binder	pKd
NYWPGKETQL [SLCO1C1, Q9NYB5]	below the threshold
CLDTSRETDL [KCNA5, P22460]	below the threshold

Target: PDLIM4, P50479
Assay: holdup assay
Design: key: below the threshold = too weak to quantify, mostly under pKd 3.1 to 4
Settings: plain residues with an end cap or a label only (N-terminal biotin on a linker: ttds)

PDLIM4, P50479, sequence (P50479 1-83): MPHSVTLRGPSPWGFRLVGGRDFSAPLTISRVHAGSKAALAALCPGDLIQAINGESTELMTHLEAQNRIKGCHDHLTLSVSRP

Binder	pKd
NYWPGKETQL [SLCO1C1, Q9NYB5]	below the threshold
CLDTSRETDL [KCNA5, P22460]	4.26

Target: T5, PDZD2_3, O15018
Assay: holdup assay
Design: key: below the threshold = too weak to quantify, mostly under pKd 3.1 to 4
Settings: plain residues with an end cap or a label only (N-terminal biotin on a linker: ttds)

Binder	pKd
NYWPGKETQL [SLCO1C1, Q9NYB5]	below the threshold
CLDTSRETDL [KCNA5, P22460]	below the threshold

Target: T6, PDZD7_2, Q9H5P4
Assay: holdup assay
Design: key: below the threshold = too weak to quantify, mostly under pKd 3.1 to 4
Settings: plain residues with an end cap or a label only (N-terminal biotin on a linker: ttds)

Binder	pKd
NYWPGKETQL [SLCO1C1, Q9NYB5]	below the threshold
CLDTSRETDL [KCNA5, P22460]	below the threshold

Target: T7, PTPN13_4, Q12923
Assay: holdup assay
Design: key: below the threshold = too weak to quantify, mostly under pKd 3.1 to 4
Settings: plain residues with an end cap or a label only (N-terminal biotin on a linker: ttds)

Binder	pKd
NYWPGKETQL [SLCO1C1, Q9NYB5]	below the threshold
CLDTSRETDL [KCNA5, P22460]	below the threshold

Target: T8, PTPN13_5, Q12923
Assay: holdup assay
Design: key: below the threshold = too weak to quantify, mostly under pKd 3.1 to 4
Settings: plain residues with an end cap or a label only (N-terminal biotin on a linker: ttds)

Binder	pKd
NYWPGKETQL [SLCO1C1, Q9NYB5]	below the threshold
CLDTSRETDL [KCNA5, P22460]	below the threshold

Target: Q5TCQ9
Assay: holdup assay
Design: key: below the threshold = too weak to quantify, mostly under pKd 3.1 to 4
Settings: plain residues with an end cap or a label only (N-terminal biotin on a linker: ttds)

Binder	pKd
NYWPGKETQL [SLCO1C1, Q9NYB5]	below the threshold
CLDTSRETDL [KCNA5, P22460]	below the threshold

Target: Q6ZWJ1
Assay: holdup assay
Design: key: below the threshold = too weak to quantify, mostly under pKd 3.1 to 4
Settings: plain residues with an end cap or a label only (N-terminal biotin on a linker: ttds)

Binder	pKd
NYWPGKETQL [SLCO1C1, Q9NYB5]	below the threshold
CLDTSRETDL [KCNA5, P22460]	below the threshold

Target: Q92614
Assay: holdup assay
Design: key: below the threshold = too weak to quantify, mostly under pKd 3.1 to 4
Settings: plain residues with an end cap or a label only (N-terminal biotin on a linker: ttds)

Binder	pKd
NYWPGKETQL [SLCO1C1, Q9NYB5]	below the threshold
CLDTSRETDL [KCNA5, P22460]	below the threshold

Target: Q96FS4
Assay: holdup assay
Design: key: below the threshold = too weak to quantify, mostly under pKd 3.1 to 4
Settings: plain residues with an end cap or a label only (N-terminal biotin on a linker: ttds)

Binder	pKd
NYWPGKETQL [SLCO1C1, Q9NYB5]	below the threshold
CLDTSRETDL [KCNA5, P22460]	below the threshold

Target: Q96HC4
Assay: holdup assay
Design: key: below the threshold = too weak to quantify, mostly under pKd 3.1 to 4
Settings: plain residues with an end cap or a label only (N-terminal biotin on a linker: ttds)

Binder	pKd
NYWPGKETQL [SLCO1C1, Q9NYB5]	below the threshold
CLDTSRETDL [KCNA5, P22460]	below the threshold

Target: Q96JB8
Assay: holdup assay
Design: key: below the threshold = too weak to quantify, mostly under pKd 3.1 to 4
Settings: plain residues with an end cap or a label only (N-terminal biotin on a linker: ttds)

Binder	pKd
NYWPGKETQL [SLCO1C1, Q9NYB5]	below the threshold
CLDTSRETDL [KCNA5, P22460]	below the threshold

Target: Q96JY6
Assay: holdup assay
Design: key: below the threshold = too weak to quantify, mostly under pKd 3.1 to 4
Settings: plain residues with an end cap or a label only (N-terminal biotin on a linker: ttds)

Binder	pKd
NYWPGKETQL [SLCO1C1, Q9NYB5]	below the threshold
CLDTSRETDL [KCNA5, P22460]	below the threshold

Target: RGS3, P49796-9
Assay: holdup assay
Design: key: below the threshold = too weak to quantify, mostly under pKd 3.1 to 4
Settings: plain residues with an end cap or a label only (N-terminal biotin on a linker: ttds)

RGS3, P49796-9, sequence (P49796 other isoform, or with tags, fused parts or gaps): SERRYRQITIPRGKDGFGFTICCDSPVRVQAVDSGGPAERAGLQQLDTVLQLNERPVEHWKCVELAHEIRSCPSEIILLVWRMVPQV

Binder	pKd
NYWPGKETQL [SLCO1C1, Q9NYB5]	below the threshold
CLDTSRETDL [KCNA5, P22460]	below the threshold

Target: T9, SHROOM4, Q9ULL8
Assay: holdup assay
Design: key: below the threshold = too weak to quantify, mostly under pKd 3.1 to 4
Settings: plain residues with an end cap or a label only (N-terminal biotin on a linker: ttds)

Binder	pKd
NYWPGKETQL [SLCO1C1, Q9NYB5]	below the threshold
CLDTSRETDL [KCNA5, P22460]	below the threshold

Target: T10, SNTB2, Q13425
Assay: holdup assay
Design: key: below the threshold = too weak to quantify, mostly under pKd 3.1 to 4
Settings: plain residues with an end cap or a label only (N-terminal biotin on a linker: ttds)

Binder	pKd
NYWPGKETQL [SLCO1C1, Q9NYB5]	5.13
CLDTSRETDL [KCNA5, P22460]	4.91

Target: T11, TJP3_1, O95049
Assay: holdup assay
Design: key: below the threshold = too weak to quantify, mostly under pKd 3.1 to 4
Settings: plain residues with an end cap or a label only (N-terminal biotin on a linker: ttds)

Binder	pKd
NYWPGKETQL [SLCO1C1, Q9NYB5]	below the threshold
CLDTSRETDL [KCNA5, P22460]	below the threshold

Target: T12, USH1C_2, Q9Y6N9
Assay: holdup assay
Design: key: below the threshold = too weak to quantify, mostly under pKd 3.1 to 4
Settings: plain residues with an end cap or a label only (N-terminal biotin on a linker: ttds)

Binder	pKd
NYWPGKETQL [SLCO1C1, Q9NYB5]	below the threshold
CLDTSRETDL [KCNA5, P22460]	below the threshold
